Experimental data: publication PMC9537944, “eIF4G1 N-terminal intrinsically disordered domain is a multi-docking station for RNA, Pab1, Pub1, and self-assembly” (Frontiers in Molecular Biosciences, 2022)

T1: eIF4G1 1-82 (Saccharomyces cerevisiae, UniProt P39935 1-82)
T1 sequence: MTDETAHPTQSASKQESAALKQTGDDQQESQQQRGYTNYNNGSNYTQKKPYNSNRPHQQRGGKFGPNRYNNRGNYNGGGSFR


Tests used:
eIF4G1 1-82 = target: T1, eIF4G1 1-82; assay: NMR (1H-15N HSQC titration); shifts centered at R34, R55, G65; new Arg side-chain NeHe signal; NMR: 25 mM potassium phosphate pH 6.5, 25 or 150 mM NaCl, 1 mM DTT, 10% D2O, 25 C, 800 MHz (general NMR conditions; not stated specifically for RNA titrations); details: protein: recombinant; tags: N-terminal gs left after TEV cleavage of TrxA-6xHis; single strand
[1] = target: the molecule itself; assay: NMR paramagnetic relaxation enhancement (intermolecular PRE); 15N-labelled wild-type eIF4G1 1-249 mixed 1:1 with TEMPO spin-labelled eIF4G1 1-249 Q109C at natural isotopic abundance; intensity ratios of 1H-15N HSQC peaks, oxidised against ascorbate-reduced label; 25 mM potassium phosphate pH 6.5, 25 mM NaCl, 1 mM DTT

| Binder | binding result (eIF4G1 1-82) | binding result [1] |
| --- | --- | --- |
| AAAAAAAAAAAAAA (ssRNA) [A14] | binds | – |
| eIF4G1_(1-249), N-terminal intrinsically disordered region of eIF4G1 (domain or fragment, Saccharomyces cerevisiae, UniProt P39935 1-249, looked up, 15N-labelled where it was the observed partner; Minor isoaspartate forms (12%-14%) are reported at positions 41 and 76; In the intermolecular PRE experiment the second copy was the Q109C mutant carrying a TEMPO spin label; also called eIF4G1 IDR; not shown: thioredoxin A, N-terminal, cleaved; 6xHis, internal (between thioredoxin A and the TEV site), cleaved) MTDETAHPTQSASKQESAALKQTGDDQQESQQQRGYTNYNNGSNYTQKKPYNSNRPHQQRGGKFGPNRYNNRGNYNGGGSFRGGHMGANSSNVPWTGYYNNYPVYYQPQQMAAAGSAPANPIPVEEKSPVPTKIEITTKSGEHLDLKEQHKAKLQSQERSTVSPQPESKLKETSDSTSTSTPTPTPSTNDSKASSEENISEAEKTRRNFIEQVKLRKAALEKKRKEQLEGSSGNNNIPMKTTPENVEEK | – | binds |
